The source of these data is EP4700040A1, “PEPTIDE AND LUMINESCENT COMPLEX CONTAINING SAME” (Shenzhen Loggene Life Science & Technology Co., Ltd., priority 2023, dated 2024).

This assay deals with Large subunit-rSCFV5 fusion protein. As to the kind of experiment: cell-based or functional assay.
Sequence of Large subunit-rSCFV5 fusion protein (chain, as listed by the source): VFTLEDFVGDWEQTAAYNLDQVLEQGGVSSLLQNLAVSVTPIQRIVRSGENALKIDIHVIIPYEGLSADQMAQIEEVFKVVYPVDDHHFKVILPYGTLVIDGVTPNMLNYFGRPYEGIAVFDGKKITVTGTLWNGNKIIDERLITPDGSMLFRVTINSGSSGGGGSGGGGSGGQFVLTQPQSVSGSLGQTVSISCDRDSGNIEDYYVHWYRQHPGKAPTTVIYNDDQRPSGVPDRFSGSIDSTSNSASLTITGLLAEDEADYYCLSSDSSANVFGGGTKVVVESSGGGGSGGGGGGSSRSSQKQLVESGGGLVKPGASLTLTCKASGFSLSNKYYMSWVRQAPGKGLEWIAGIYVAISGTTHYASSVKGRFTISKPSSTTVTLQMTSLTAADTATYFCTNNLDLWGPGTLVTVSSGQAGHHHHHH

B1: rSCFV18-small subunit mutant fusion protein RC-145 (peptide, part only; not given: rSCFV18 scFv part, part only)
chain, part: VEGYRLFERKS
With B1, the RLU, PCT+ is 8200 RLU; the RLU, PCT- is 808 RLU; the Signal-to-noise ratio was found to be 10.1.

B2: rSCFV18-small subunit mutant fusion protein RC-286 (peptide, part only; not given: rSCFV18 scFv part, part only)
chain, part: VEGYRIFEKKW
As to B2, the RLU, PCT+ is 5000 RLU; the RLU, PCT- was 438 RLU; the Signal-to-noise ratio amounted to 11.4; the Signal-to-noise ratio at 1000 pg/ml came out at 5.5. The normalised luminescence at PCT 0.0 pg/ml came out at 5000, the normalised luminescence at PCT 1 pg/ml was 4670, the normalised luminescence at PCT 3 pg/ml was determined as 4640 and the normalised luminescence at PCT 10 pg/ml was determined as 4830. For the same molecule, the normalised luminescence at PCT 30 pg/ml worked out at 5410, the normalised luminescence at PCT 100 pg/ml is 6700, the normalised luminescence at PCT 1000 pg/ml was 27600 and the normalised luminescence at PCT 10000 pg/ml was determined as 236000. The molecule further registered a normalised luminescence at PCT 100000 pg/ml of 1.44e+06 and a normalised luminescence at PCT 250000 pg/ml of 2.01e+06.

B3: rSCFV18-small subunit mutant fusion protein RB152 (peptide, part only; not given: rSCFV18 scFv part, part only)
chain, part: VEGYRLFKREL
For B3, the RLU, PCT+ was determined as 37200 RLU; the RLU, PCT- turned out to be 906 RLU; the Signal-to-noise ratio was found to be 40.

B4: rSCFV18-small subunit mutant fusion protein RC-044 (peptide, part only; not given: rSCFV18 scFv part, part only)
chain, part: VSGYRIFDKKS
For the molecule B4, the RLU, PCT+ came to 10400 RLU; the RLU, PCT- is 1300 RLU; the Signal-to-noise ratio stood at 8.

B5: rSCFV18-small subunit mutant fusion protein RB128 (peptide, part only; not given: rSCFV18 scFv part, part only)
chain, part: VEGYRLFDRVW
Regarding B5, the RLU, PCT+ is 26200 RLU; the RLU, PCT- came to 658 RLU; the Signal-to-noise ratio amounted to 38.8.

B6: rSCFV18-small subunit mutant fusion protein RC-218 (peptide, part only; not given: rSCFV18 scFv part, part only)
chain, part: VEGYRLFDRKS
In the case of B6, the RLU, PCT+ came to 7240 RLU; the RLU, PCT- amounted to 921 RLU; the Signal-to-noise ratio came out at 7.9; the Signal-to-noise ratio at 1000 pg/ml was determined as 6.3. The molecule further yielded a normalised luminescence at PCT 0.0 pg/ml of 5000, a normalised luminescence at PCT 1 pg/ml of 4940, a normalised luminescence at PCT 3 pg/ml of 4980 and a normalised luminescence at PCT 10 pg/ml of 5160. This molecule also returned a normalised luminescence at PCT 30 pg/ml of 5700, a normalised luminescence at PCT 100 pg/ml of 7490, a normalised luminescence at PCT 1000 pg/ml of 31600 and a normalised luminescence at PCT 10000 pg/ml of 266000. The molecule also yielded a normalised luminescence at PCT 100000 pg/ml of 1.76e+06 and a normalised luminescence at PCT 250000 pg/ml of 2.44e+06.

B7: rSCFV18-small subunit mutant fusion protein RB186 (peptide, part only; not given: rSCFV18 scFv part, part only)
chain, part: VEGYRLFDRKW
Consider B7, for which the RLU, PCT+ came to 27200 RLU; the RLU, PCT- was 590 RLU; the Signal-to-noise ratio was 45.1.

B8: rSCFV18-small subunit mutant fusion protein RC-042 (peptide, part only; not given: rSCFV18 scFv part, part only)
chain, part: VEGYRLFEKVS
With B8, the RLU, PCT+ came out at 5770 RLU; the RLU, PCT- was determined as 593 RLU; the Signal-to-noise ratio came out at 9.7.

B9: rSCFV18-small subunit mutant fusion protein RA128 (peptide, part only; not given: rSCFV18 scFv part, part only)
chain, part: VEGYRLHEKIS
For the molecule B9, the RLU, PCT+ is 17900 RLU; the RLU, PCT- came out at 387 RLU; the Signal-to-noise ratio turned out to be 45.2.

B10: rSCFV18-small subunit mutant fusion protein RC-033 (peptide, part only; not given: rSCFV18 scFv part, part only)
chain, part: VSGYRLFDRKW
With B10, the RLU, PCT+ turned out to be 8510 RLU; the RLU, PCT- worked out at 820 RLU; the Signal-to-noise ratio came out at 10.4.

B11: rSCFV18-small subunit mutant fusion protein RC-124 (peptide, part only; not given: rSCFV18 scFv part, part only)
chain, part: VSGWRIFDKKS
Regarding B11, the RLU, PCT+ was determined as 9280 RLU; the RLU, PCT- came out at 1230 RLU; the Signal-to-noise ratio was determined as 7.5.
